Positions count from the first letter of the chain named. Values belong to the molecule of their own block, whether it stands above or below them.
Experiments:
[1] = target: T1, FGFR3 (Homo sapiens, UniProt P22607); assay: Affinity to FGFR3 measured by FACS; format: binding
[2] = target: T1, FGFR3; assay: FDCP-FGFR3 proliferation assay performed with FGF9; format: cell-based; settings: dimeric dHLX format

T1 sequence (P22607 23-806): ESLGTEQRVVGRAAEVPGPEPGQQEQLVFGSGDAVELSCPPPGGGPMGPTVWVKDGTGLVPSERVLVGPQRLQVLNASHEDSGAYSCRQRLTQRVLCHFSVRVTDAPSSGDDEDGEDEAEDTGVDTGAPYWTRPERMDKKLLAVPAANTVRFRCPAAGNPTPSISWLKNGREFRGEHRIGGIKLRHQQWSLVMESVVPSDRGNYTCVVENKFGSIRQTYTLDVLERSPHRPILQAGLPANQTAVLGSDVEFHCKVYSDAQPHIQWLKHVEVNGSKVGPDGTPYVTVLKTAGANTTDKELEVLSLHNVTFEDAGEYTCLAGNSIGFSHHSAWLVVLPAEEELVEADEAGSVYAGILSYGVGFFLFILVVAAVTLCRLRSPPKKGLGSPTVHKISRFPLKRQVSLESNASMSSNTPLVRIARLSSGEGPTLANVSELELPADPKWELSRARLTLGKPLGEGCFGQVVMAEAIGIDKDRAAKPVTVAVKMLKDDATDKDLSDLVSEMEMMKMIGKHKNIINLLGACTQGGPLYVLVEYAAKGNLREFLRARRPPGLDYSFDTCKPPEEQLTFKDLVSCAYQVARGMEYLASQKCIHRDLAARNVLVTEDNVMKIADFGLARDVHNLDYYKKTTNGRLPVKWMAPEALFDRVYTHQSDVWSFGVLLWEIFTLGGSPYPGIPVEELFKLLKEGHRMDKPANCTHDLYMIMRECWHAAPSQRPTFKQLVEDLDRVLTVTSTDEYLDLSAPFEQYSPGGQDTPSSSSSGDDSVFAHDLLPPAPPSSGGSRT

- Kd [1]: 1.4 nM
- IC50 [2]: 70 nM
B1: PRO-026: HuCAL clone anti-FGFR3 antibody; VH-CDR3 SEQ ID NO:6, VL-CDR3 SEQ ID NO:15 (antibody, V domains shown)
VH: QVQLVQSGAEVKKPGASVKVSCKASGYTFTSYYMHWVRQAPGQGLEWMGWINPNSGGTNYAQKFQGRVTMTRDTSISTAYMELSSLRSEDTAVYYCARGYWYAYFTYINYGYFDNWGQGTLVTVSS
VL: DIALTQPASVSGSPGQSITISCTGTSSDVGGYNYVSWYQQHPGKAPKLMIYDVSNRPSGVSNRFSGSKSGNTASLTISGLQAEDEADYYCQSYDNNSDVVFGGGTKLTVLGQ

- IC50 [2]: 34 nM
B2: PRO-055: HuCAL clone anti-FGFR3 antibody; VH-CDR3 SEQ ID NO:9, VL-CDR3 SEQ ID NO:18 (antibody, V domains shown)
VH: QVQLVQSGAEVKKPGASVKVSCKASGYTFTSYYMHWVRQAPGQGLEWMGWINPNSGGTNYAQKFQGRVTMTRDTSISTAYMELSSLRSEDTAVYYCARSMNSTMYWYLRRVLFDHWGQGTLVTVSS
VL: B1 VL with N95M, N96Y, S97N, D98Y, V99I

- Kd [1]: 43 nM
- IC50 [2]: 360 nM
B3: PRO-002: HuCAL clone anti-FGFR3 antibody; VH-CDR3 SEQ ID NO:2, VL-CDR3 SEQ ID NO:11 (antibody, V domains shown)
VH: QVQLVQSGAEVKKPGASVKVSCKASGYTFTSYYMHWVRQAPGQGLEWMGWINPNSGGTNYAQKFQGRVTMTRDTSISTAYMELSSLRSEDTAVYYCARDFLGYEFDYWGQGTLVTVSS
VL: DIELTQPPSVSVAPGQTARISCSGDALGDKYASWYQQKPGQAPVLVIYDDSDRPSGIPERFSGSNSGNTATLTISGTQAEDEADYYCQSYDYSADYVFGGGTKLTVLGQ

- Kd [1]: 0.7 nM
- IC50 [2]: 19 nM
B4: PRO-001: HuCAL clone anti-FGFR3 antibody; VH-CDR3 SEQ ID NO:1, VL-CDR3 SEQ ID NO:10; VH SEQ ID NO:19, VL SEQ ID NO:28 (antibody, V domains shown)
VH: QVQLQQSGPGLVKPSQTLSLTCAISGDSVSSNSAAWNWIRQSPGRGLEWLGRTYYRSKWYNDYAVSVKSRITINPDTSKNQFSLQLNSVTPEDTAVYYCARSYYPDFDYWGQGTLVTVSS
VL: B3 VL with Y92G, S93P, A94D, D95L, Y96W
modifications: SEQUENCE FROM PHAGE LIBRARY

- Kd [1]: < 1 nM
- IC50 [2]: 20 nM
B5: PRO-029: HuCAL clone anti-FGFR3 antibody; VH-CDR3 SEQ ID NO:7, VL-CDR3 SEQ ID NO:16 (antibody, V domains shown)
VH: QVQLVQSGAEVKKPGASVKVSCKASGYTFTSYYMHWVRQAPGQGLEWMGWINPNSGGTNYAQKFQGRVTMTRDTSISTAYMELSSLRSEDTAVYYCARTWQYSYFYYLDGGYYFDIWGQGTLVTVSS
VL: DIVLTQSPATLSLSPGERATLSCRASQSVSSSYLAWYQQKPGQAPRLLIYGASSRATGVPARFSGSGSGTDFTLTISSLEPEDFATYYCQQTNNAPVTFGQGTKVEIKRT

- IC50 [2]: 45 nM
B6: PRO-054: HuCAL clone anti-FGFR3 antibody; VH-CDR3 SEQ ID NO:8, VL-CDR3 SEQ ID NO:17 (antibody, V domains shown)
VH: QVQLVQSGAEVKKPGASVKVSCKASGYTFTSYYMHWVRQAPGQGLEWMGWINPNSGGTNYAQKFQGRVTMTRDTSISTAYMELSSLRSEDTAVYYCARNMAYTNYQYVNMPHFDYWGQGTLVTVSS
VL: DIELTQPPSVSVAPGQTARISCSGDALGDKYASWYQQKPGQAPVLVIYDDSDRPSGIPERFSGSNSGNTATLTISGTQAEDEADYYCQSYDYFKLVFGGGTKLTVLGQ

Reference: patent US20080044419A1, “Treatment of T Cell Mediated Diseases by Inhibition of Fgfr3” (Fibron Ltd., priority 2003, published 2008)
